Measurements from PMC7350762.

Target: Myc-tagged MKL-1 (1–705) (MKL-1△TAD) (UniProt Q969V6)
Chain of UniProt Q969V6 (Q969V6 1-705): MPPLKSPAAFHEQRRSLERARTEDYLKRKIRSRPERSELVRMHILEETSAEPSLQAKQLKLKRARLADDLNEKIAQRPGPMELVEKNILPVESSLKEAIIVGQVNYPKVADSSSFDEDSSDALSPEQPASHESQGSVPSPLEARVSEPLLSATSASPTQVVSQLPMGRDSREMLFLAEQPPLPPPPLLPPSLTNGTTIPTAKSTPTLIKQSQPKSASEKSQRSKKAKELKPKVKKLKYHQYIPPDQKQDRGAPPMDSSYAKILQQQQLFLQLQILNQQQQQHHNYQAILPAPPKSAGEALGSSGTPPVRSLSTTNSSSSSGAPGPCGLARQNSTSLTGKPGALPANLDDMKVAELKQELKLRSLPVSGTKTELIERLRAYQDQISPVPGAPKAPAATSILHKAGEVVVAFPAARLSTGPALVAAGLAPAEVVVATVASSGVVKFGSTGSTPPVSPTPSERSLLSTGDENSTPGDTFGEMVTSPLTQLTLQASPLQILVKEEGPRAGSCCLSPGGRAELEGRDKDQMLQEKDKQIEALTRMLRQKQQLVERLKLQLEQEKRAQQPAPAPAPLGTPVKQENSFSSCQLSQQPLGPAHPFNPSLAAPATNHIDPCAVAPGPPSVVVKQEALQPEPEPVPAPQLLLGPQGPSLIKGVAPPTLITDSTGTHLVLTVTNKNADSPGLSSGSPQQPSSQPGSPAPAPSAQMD

For “Flag-tagged STAT5b (WT-STAT5b) (from UniProt P51692 1-787) (natural protein)”, the reduction in MKL-1 transactivation of the Foxp3 reporter (luciferase assay, HEK-293 T cells) by the mutation of the TAD of MKL-1 was 60%.
